In the supplement of paper PMC10126150:
± gives the standard deviation of the averaged measurements.

Tested on: ATP
Assay: switch fluorescence ratio, 500 uM ATP over buffer (Cy3 cluster intensity, sum of 5 cycles each) (fold (ratio)); higher = stronger signal-on switching upon ATP binding; sequences stand for … in TCGTCGGCAGCGTCAGATGTGTATAAGAGACAGTTTTTTTTTTTTTTTTTTTTTTTTT…TC
Conditions: aptamer strand: ATP DNA aptamer (quencher-CACCTGGGGGAGTATTGCGGAGGAAGG + anchor), 100 nM annealed; ATP concentration: 500 uM
How it was run: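 Values give the fluorescence ratio for each switch-domain sequence, averaged from per-cluster ratios of summed target-cycle to summed buffer-cycle Cy3 intensity. The Cy3-labelled switching-strand clusters sat on a modified Illumina MiSeq flow-cell, were annealed to 100 nM quencher-labelled ATP aptamer, and were imaged in selection buffer, then after 15 min with 500 uM ATP at 22 °C. Five cycles ran with NaOH stripping and re-annealing between them, and clusters outside 100-1000 RFU were excluded.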
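Further: ATP exposure 15 min at 22 °C before imaging.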

Sequence | switch fluorescence ratio
AGTTTGGTCT | 0.984 ± 0.034
TCGGCGTATC | 0.979 ± 0.01
ATGGTTGGGG | 0.994 ± 0.031
CAAAAGAACG | 0.975 ± 0.031
TATTAAACCG | 1.06 ± 0.013
AACGTGATTA | 1.07 ± 0.023
AGATTCTGGG | 0.971 ± 0.016
TGTTTTGTTT | 0.995 ± 0.013
TTTTTTAAGA | 1.01 ± 0.025
GATGAGTTG | 1.01 ± 0.012
TTAAAACGAA | 1.01 ± 0.024
TGCTTCCCTC | 1.1 ± 0.018
TTAAAATATC | 0.99948 ± 0.00018
AGGGGGTGGC | 0.986 ± 0.048
AACTGAGACT | 1.02 ± 0.032
GTGTTACGGG | 0.985 ± 0.016
ACCTTAGTAT | 1.02 ± 0.022
TGGCCGTATT | 1 ± 0.056
ATGGCATGCT | 1.02 ± 0.021
AAAGGGTACT | 1.08 ± 0.064
GTTATTATTC | 0.9922 ± 0.0057
TAGAAGGTTC | 1.17 ± 0.29

Sequence | switch fluorescence ratio
TTCAATCCCG | 0.991 ± 0.069
TAAGCAGACG | 0.9687 ± 0.0061
ACGTGTGTTT | 1.01 ± 0.017
GAGGGAATTA | 1.06 ± 0.11
TAGTCTAGGT | 1.02 ± 0.025
ATTCCTAGAT | 1.002 ± 0.0091
CTCTAATTTT | 1.013 ± 0.0052
GGTTGATGTT | 0.969 ± 0.059
AGATGGTCAA | 0.967 ± 0.02
TTTATTTGGA | 1.018 ± 0.0012
TTTGAGTTTT | 0.989 ± 0.034
GGGGCGGGTA | 1 ± 0.078
CATTTGAGCC | 0.973 ± 0.013
GAGGCATATA | 1.9 ± 0.29
TGGGGTAGCT | 0.997 ± 0.015
TATTAGTAAG | 0.985 ± 0.034
AATGGGCAGT | 0.989 ± 0.029
TTTTGACCGC | 1.09 ± 0.061
GGCGGGAAAG | 0.983 ± 0.037
CCGAATCCAG | 1.111 ± 0.0099
TTTGTAGCCG | 1.01 ± 0.061
ATGTATGGGT | 0.992 ± 0.036

Sequence | switch fluorescence ratio
CAAAGTACGT | 1.18 ± 0.043
AAGGGCTCAT | 0.97409 ± 0.00079
GGGTTGACCC | 0.993 ± 0.024
GTTTCGAGGG | 0.974 ± 0.037
CCCAGTATGG | 1.001 ± 0.0082
TCAGCTCTTC | 0.987 ± 0.042
TAAAATCGGG | 0.958 ± 0.023
TTGGGCTGGT | 0.962 ± 0.035
TTTATTGACG | 0.886 ± 0.012
TTCAATTCCG | 1.03 ± 0.092
TTTTTAAATT | 0.997 ± 0.025
CGTTGTTATG | 0.9852 ± 0.0067
AGTTTGTAGT | 1 ± 0.011
CGGGTATATT | 1.01 ± 0.032
CAGTCCGGGC | 0.991 ± 0.028
TTAGAATTCC | 1.1 ± 0.091
ATCACTGGGT | 0.9976 ± 0.0051
TCACGGACAG | 1.3 ± 0.057
GGAGGTGTTA | 1.01 ± 0.031
ACGGTGACTA | 1.1 ± 0.023
ACGGGGGATT | 1.03 ± 0.034
TAAGTGGGTA | 0.991 ± 0.011

Sequence | switch fluorescence ratio
GTTTAAAGAC | 0.981 ± 0.02
ACTAGGTTAT | 1.16 ± 0.15
TTTCTTTGAT | 0.998 ± 0.029
CGCAGGAAAG | 0.973 ± 0.0023
TTTGGCGTTG | 0.9881 ± 0.0086
AAGGTACTAC | 1.03 ± 0.065
AATCCATGCG | 1.004 ± 0.0076
AAAATTTAAC | 1.01 ± 0.023
CAATAGAGAG | 0.997 ± 0.024
TATTGACTAG | 1.03 ± 0.059
TAAGGAGTAA | 1.034 ± 0.01
ACGTTTTGTC | 1 ± 0.061
TAAATTGGCG | 0.987 ± 0.037
ATAATTTTAC | 1.07 ± 0.041
ATATTATGGA | 1 ± 0.02
ATGGGAGCTT | 1.01 ± 0.025
CTATTTAGAT | 0.984 ± 0.011
AATATAAAGC | 1.012 ± 0.0028
CGGGAAAACG | 0.995 ± 0.012
